As usually defined, the Kd is the concentration at which binding is half-saturated. High values mean a looser complex, low ones a tighter complex. Usually stoichiometry N stands for the number of molecules, sites or subunits per partner or assembly.

Results on one molecule are retold here after publication PMC4004102.

Assay [1] deals with FAM-AIP-I (fluorescein-labeled AIP-I analog) (Staphylococcus aureus). The experiment in a line: fluorescence polarisation. For orientation: Fluorescence polarisation rises when a labelled molecule tumbles more slowly, as on binding a larger partner.
Assay [2] addresses AgrC-I (wild type) dimer embedded in nanodiscs (Staphylococcus aureus). The experiment in a line: SEC-MALS. In general terms: SEC sorts molecules by how far they enter the pores of the column.

B1: AgrC-I (wild type) dimer embedded in nanodiscs (receptor)
chain: MELLNSYNFVLFVLTQMILMFTIPAIISGIKYSKLDYFFIIVISTLSLFLFKMFDSASLIILTSFIIIMYFVKIKWYSILLIMTSQIILYCANYMYIVIYAYITKISDSIFVIFPSFFVVYVTISILFSYIINRVLKKISTPYLILNKGFLIVISTILLLTFSLFFFYSQINSDEAKVIRQYSFIFIGITIFLSILTFVISQFLLKEMKYKRNQEEIETYYEYTLKIEAINNEMRKFRHDYVNILTTLSEFIREDDMPGLRDYFNKNIVPMKDNLQMNAIKLNGIENLKVREIKGLITAKILRAQEMNIPISIEIPDEVSSINLNMIDLSRSIGIILDNAIEASTEIDDPIIRVAFIESENSVTFIVMNKCADDIPRIHELFQESFSTKGEGRGLGLSTLKEIADNADNVLLDTIIENGFFIQKVEIINN
modifications: not checked
The molecule B1 had a Kd in assay [1] of 122 nM. This molecule gave a stoichiometry N in assay [2] of 2.
